US20210132065A1, “MAMMALIAN MHC PEPTIDE DISPLAY AS AN EPITOPE SELECTION TOOL FOR VACCINE DESIGN” (ETH Zürich, priority 2018, published 2021)
Entries after “also recorded” stand apart in the source; their conditions may differ. Like-named read-outs stand apart in the source and are kept apart here. Where no end group is shown, it is not given here.

Legend:
HLA-DRB1_15 = HLA-DRB1_15 (Homo sapiens, UniProt P01903+P01911); type: cell-based; conditions: for MCR surface expression: peptide covalently linked to beta chain, anti-HLA-DR APC antibody, FACS
HLA-DRB1_15, sequence (P01911 30-227 limits assumed): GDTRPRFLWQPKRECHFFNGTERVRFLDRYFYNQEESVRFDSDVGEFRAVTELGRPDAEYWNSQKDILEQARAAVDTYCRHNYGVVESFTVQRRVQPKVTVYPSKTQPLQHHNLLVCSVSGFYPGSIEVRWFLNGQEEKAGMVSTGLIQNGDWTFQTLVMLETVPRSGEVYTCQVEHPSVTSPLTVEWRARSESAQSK
HLA-DRB1_15, sequence (P01903 26-216 limits assumed): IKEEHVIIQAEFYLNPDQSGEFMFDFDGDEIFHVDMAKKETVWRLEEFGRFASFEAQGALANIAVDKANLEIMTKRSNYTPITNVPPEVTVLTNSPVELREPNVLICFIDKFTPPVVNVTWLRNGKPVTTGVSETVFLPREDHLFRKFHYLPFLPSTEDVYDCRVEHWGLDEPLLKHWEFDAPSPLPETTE

HLA-DRB5_1 = HLA-DRB5_1 (Homo sapiens, UniProt P01903+Q30154); type: cell-based; conditions: for MCR surface expression: peptide covalently linked to beta chain, anti-HLA-DR APC antibody, FACS
HLA-DRB5_1, sequence (Q30154 30-227 limits assumed): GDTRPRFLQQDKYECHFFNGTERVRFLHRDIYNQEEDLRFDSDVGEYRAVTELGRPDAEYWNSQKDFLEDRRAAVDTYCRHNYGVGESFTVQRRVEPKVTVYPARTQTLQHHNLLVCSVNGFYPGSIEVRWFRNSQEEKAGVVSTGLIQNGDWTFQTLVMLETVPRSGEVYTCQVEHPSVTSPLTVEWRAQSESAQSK
HLA-DRB5_1, sequence (P01903 26-216 limits assumed): as the sequence (P01903 26-216 limits assumed) above

[1] = FIG. 6, anti-CD3e or anti-HLA-DR PE antibodies, peptides containing the core epitope with different flanking regions

With “MP162-72: influenza Matrix Protein 1-derived peptide comprising amino acids 62-72, covalently linked to the HLA beta chain of the MCR (FVFTLTVPSER; also: covalently linked to HLA beta chain of the MCR; UniProt P03485 62-72, looked up, fragment)” the MCR surface expression (HLA-DRB1_15) was “not the other HLAs tested” and the MCR surface expression (HLA-DRB5_1) was “efficient expression”.

In the case of “MP1103-120: influenza Matrix Protein 1 peptide, amino acids 103-120, covalently linked to the HLA beta chain of the MCR (LKREITFHGAKEISLSYS; also: covalently linked to HLA beta chain of the MCR; UniProt P03485 103-120, looked up, fragment)”, the MCR surface expression (HLA-DRB1_15) is reported as “detectable at very low levels; also recorded: very low MCR expression”, the MCR surface expression (HLA-DRB1_15; listed as MP1103-121) is reported as “low surface expression” and the MCR surface expression (HLA-DRB5_1) is reported as “barely detected; also recorded: not expressed at all”. For the same substance, the MCR surface expression (HLA-DRB5_1; listed as MP1103-121) was “not to bind at all”.

For “MP1107-117: core epitope of influenza Matrix Protein 1, amino acids 107-117, tested within peptides with different flanking regions (ITFHGAKEISL; UniProt P03485 107-117, looked up, fragment)”, the “presentation (MCR surface expression)” value (HLA-DRB1_15; [1]) was “not by HLA-DRB1_15” and the “presentation (MCR surface expression)” value (HLA-DRB5_1; [1]) was “nor HLA-DRB5_1”.
